{"source": "the DeepSol protein solubility set", "data": [{"assay": "soluble on expression in E. coli; label from the status in PepcDB or PDB records", "values": [{"sequence": "NFTHVKGSVGSNSQYVGQVDSSMAFSDKVNGRINLEYRQADSYVDHVDSNDFFIAPTIRVLPADGHTIDIDVEYAHQELVPYRGVPSKNGKPVDLPVSTYFGGTNDYQESDSLRVAVDYEWRLNDQWVWNNRAAFNHIELEQKGTRQGKVTGNEVSQTVNNFGYDPRTTTTLQSELIWETNDNQLMLGADFNQIDIDLTLASDKTLPPQNIYNPVVGPTPDPGFKPFRDNTTTTTGVYVQDVYTWGDLSVIGNVRYDSMELEQQKAGSGKEKLDDDKVSYRAGLVYRINYDTSVYASLARSWQLPYAGIYINPKLAEFFHTDLKEVGAKAYLLDNALMLNAALFQIDQEQPQTNVDGDVIDKIEVRHQGIELEARGQITKQWDISVGYSYLDAEDKATGKKPNDVSDHLFSLWSTYQLDDNWRLGGGVKYVGDRYAGNDEAVALGDYTTVDLMAAYTTGRHKIQANAYNILDEKYILGATNGTSGLNQIGYGAPAEFMLSYGYQF", "soluble on expression in E. coli": "not soluble"}, {"sequence": "MGSDKIHHHHHHMQTIKLYIKDWLAIHPYIQQQATDRYFVDLANRLYSTCTIREIPESIKKKLCLYTAAYFEDVISGLGLWQAFIKKHLELYDTSLPFYTIRPDYIKDEINEEDIRFIIWNTLEKAPYKHPYINPMDRNIEETSHSFFRILDEEYETAPANDTLQDFFMDFKGKENANHKLRWLFGHTYLTEPSVQEYIAQVTETDKFIIPCGPLALFLHEWIDLLTNGETECWEEIEGLYPAIPEISDEMKERNHHTYQLFTQGTNGARIVYLEGYKELHRFLTQVLQWPDDSNHTLPQMKEHKDFIMMVNSEKGILLAKDICKYISDPLNPMYDAATAAQEAFSLLTIPTKCPPDLMEYVINNHYIPDAQFPEFGERELVQKNADFIARNSLLYYYRGD", "soluble on expression in E. coli": "not soluble"}, {"sequence": "MNGIFIEDKRLGIRLPHLDKPWEDYSPNEQEAILLEWETIRGLIPDRIAELEREINKKQDELGQEADFARSCQLNADIAELASIVNDLWIWYRIVPSVSSRHGKKRVEKP", "soluble on expression in E. coli": "not soluble"}, {"sequence": "MAHHHHHHMQFVSDLGLELSVFVCHLYAKYSEEPLKAFHELVLRTRSSCCGSDDSSNYLSLATLSGTQWYQDMTKRYASLRQRLRGERDNDVQEAREVTLSLYPQGCRVSEYADAIVTSAAMLTSNIPSTVLERFASCRVKDLNEKGCVSISADELASDLIERPVLDSFTPSRWWESDKTAPSSSLKDGLVAVKSIGLRVQPVEILIFYTYNGRPRRRFIPLDGLLHENSPIAPLLRRLVRSHGMLVSESQLRSYLQRLQELMRKSVESHASTVKPEGPLQPQFDWKQQIGYSDNAPAAHNTGEEEQHMTSAKTGEPEVNKADVGLLYRDPEAALKNVDLNDADDITLQEFKAKMNEGFMQNALRPGDPGYVYDKRLDVNPTERSEWDDSD", "soluble on expression in E. coli": "not soluble"}, {"sequence": "SPEIMKDLSINFGKALDTCKKELDLPDSINEDFYKFWKEDYEITNRLTGCAIKCLSEKLEMVDADGKLHHGNAREFAMKHGADDAMAKQLVDLIHGCEKSIPPNDDRCMEVLSIAMCFKKEIHNLKWAPNMEVVVGEVLAEV", "soluble on expression in E. coli": "soluble"}, {"sequence": "MASQGFSVYVGNVPYQGTEEEIGNYFAAVGHVNNVRIVYDRETGRPRGFAFVEFSEEAGAQRAVEQLNGVAFNGRNLRVNYANK", "soluble on expression in E. coli": "soluble"}, {"sequence": "MAHHHHHHMGTLEAQTQGPGSMLEKKTFKSSHTNAFHDFQARVYVADTDFSGVVYHARYLEFFERGRSEFLRDTGFNNTLLASGVEGEKLFFVVRHMEINFSRPAQIDNLLTIKTRISRLQGARFFMEQYILHGESMLVTAKVEIALINEEGKPRRLPKELFSTIVV", "soluble on expression in E. coli": "soluble"}, {"sequence": "MGSDKIHHHHHHMDFRLRQMEIFRSVMLTGSINGAAKLLFISQPAVSRIIAHTEQTLGLKLFNRAKGKLIPTPEGVALFRQVDEFYEHALQVNNFARDLAQGATGTLNLSSSPCLSYTVMPRAIAQFIARYPKIRVVYHTSQLNCMATEVLSNKVDVAVAVMPIQHPNVKVEVFTTGKMACVLPKDHPLGSQTVLSLADVSAYPLIVHHPSITFGKLVSTAFRDAGLEMRSRVNVFQTDVACSLVRAGAGIAIVDEYTACAGAWHDLMQRPLAEPITLTPCIVRSAFDNQATHADKFIEILRGVAHAR", "soluble on expression in E. coli": "not soluble"}, {"sequence": "NNDSWKPWSLPLSGKIIYLDPGHGGPDGGAVGGKLLEKDVTLEVAFRVRDYLQEQGALVIMTRESDTDLAPEGTKGYSRRKAEDLRQRVKLINHSEAELYISIHLNAIPSQKWSGAQSFYYGKYAENEKVAKYIQDELRRNLENTTRKAKRIHGIYLMQNVTKPGALIEVGFLSNPSEATLLGKPKYQDKVASSIYKGILRYFTEKGDPPE", "soluble on expression in E. coli": "not soluble"}, {"sequence": "LMRSPKQKQLEVDHANKTNLKPKAIVNCDLFQLGDYCVFTFKKLSFKQRFKQDFFARSKFSFRS", "soluble on expression in E. coli": "soluble"}, {"sequence": "MGSDKIHHHHHHMSRTADSLPSTRQRRKEARPQELLDAALDLFVEKGFAATRSEEVAARAGVSKGTLYLYYPSKEELLKAVIRENISQEIAEGEDIVRGFDGPTAELLAHLMAEWWRRIGETRASGICKLIISEVRNFPDIAQFYLDEVVLPAERMIGGVVQRGIDRGEFRPVAVDDVVHALMAPMLFLMLHKHSMGACPNLDRRLDAPRVVAMQVDLVLNGLVPRTAPRGGPRKAKA", "soluble on expression in E. coli": "not soluble"}, {"sequence": "AQKHVAIALCGKGNIGSSWLKLFAEQKEKLEQRHGMNFELVAVVDSQTYWFNEQGINPNQVATHFQDEALPNQEQSWLKKLGALEGYDEAVVIDVTASEELAEQYLDIAEHGLHLISANKVAGSAAGNYYYQVKDAFHKIGRHWLYNATVGAGLPINHTVRDLRESGDDIMALSGIFSGTLSWLFQQYDGSL", "soluble on expression in E. coli": "not soluble"}, {"sequence": "MSLTRFPVTALRSVDLGTPDLARSEAFYREVWGLERVGTAGGVVYLRATGRDHHVVALHRSARTELRAVTFRVADADDFEAISRNAIEQGATLIAAPAANMAPDGGTIMTLRSPEGGLLRFVHGDIRHDARPSRPELPERLAHVNLNSTDVDRTAAFYARALGFKLTDRSAAMAFVRCNSDHHAVVIAAAKVNGLNHVAFLMPTWEGVMRGSGRMIDAGYPIAWGVGRHGPGDNVFAYFIDPVGTVIEYTAEVLQVDDDYVVRGPEHWVWPPGRTDQWGIAPPKAEHVKAAQLAVGFAAEGHHHHHH", "soluble on expression in E. coli": "soluble"}, {"sequence": "MGGDFGPSVTVPAALQALNSNSQLTLLLVGNSDAITPLLAKADFEQRSRLQIIPAQSVIASDARPSQAIRASRGSSMRVALELVKEGRAQACVSAGNTGALMGLAKLLLKPLEGIERPALVTVLPHQQKGKTVVLDLGANVDCDSTMLVQFAIMGSVLAEEVVEIPNPRVALLNIGEEEVKGLDSIRDASAVLKTIPSINYIGYLEANELLTGKTDVLVCDGFTGNVTLKTMEGVVRMFLSLLKSQGEGKKRSWWLLLLKRWLQKSLTRRFSHLNPDQYNGACLLGLRGTVIKSHGAANQRAFAVAIEQAVQAVQRQVPQRIAARLESVYPAGFELLDGGKSGTLR", "soluble on expression in E. coli": "soluble"}, {"sequence": "MDLRTANVTRYILPLREGGSLPALAEADDEFKYVVKFRGAGHGTKALIAELIGGEIARTLGFRVPEIIFLNLDEAFGRTEADEEIQDLLQWSRGLNIGLHFLSGALTFDPVVHQVDGKTASQIVWMDAFLTNVDRTIKNTNMLMWHKELWLIDHGASLYFQHSWTNWQKQALTPFVQIKDHVLLPFADQLKETDMAFRQLLTSDKIWEIVNTVPDDWLNWTEGQETPQDLRDIYIQFLEERIKHSELFVNEAQHARKALI", "soluble on expression in E. coli": "not soluble"}, {"sequence": "LSITDCRGAPLYEFRYPQQFYATFASVPPLLVHSLLFIENRDLLDPQQPLANPAVDWPRFVKAAWSQVAKMFALPGQSAGGSTLATQLEKYRHSPDGLTQSGSEKLRQMISASVRAYQPGAETLEVRQRVVRDYLNSVPLSAVPGHGEVHGLAEGLRVWFGVDFARTNQLLASGPTDQQGLADKALALREVLSLVIAQRRPSHYLAK", "soluble on expression in E. coli": "not soluble"}, {"sequence": "MSAATATRSQLALQSYLDALLQEATFEDLEPLVETPPAPAPAPLKPVALAVAEVATPAPALETLPVDHGFDEFEAAVLEEQVRDARLVPPAPAALLDEPTTLRELPVEPRPHEVIELRVPSAPASVGEPPLLDLPLLDDGRPAWAAEPFECLLFD", "soluble on expression in E. coli": "soluble"}, {"sequence": "GPGSMSSLQKINDIEAELARTQKNKATMAHICALKARLAQLKRELIASESKKGGGKGEGFDVQKTGDARIGFIGFPSVGKSTLLSKMTSTHSEVAAYEFTTLTCVPGVVNYRGAKLQMLDLPGIIEGAKDGKGRGRQVIAVARTCSLILIVLDIAKPLQHKLIIERELDGFGIRLNKSPPDIVIRKKDRGGISISSTCPLTHIDQETIKIILGEYRMANADVTFRGDYTADEFIDAIEGNRAYIPAIYVLNKIDQISIEELDIVARIPHNCPISAHHEWNLDGLLECIWDHLNFIRVYTKPKGQVPDYDAPVILKKSPQPSVESFCNRIHRQLIRNYKYAWVWGSSVKHQPQRVGKDHSLDDEDVVQVVKKV", "soluble on expression in E. coli": "not soluble"}, {"sequence": "MSAEAADREAVSGSRPCTPPQTSWFEFLLNPSLLEQHLHSPHPDPSPVQLIFQFLEQASKPSVNEQNQVQPPVDNRRNRTLKLMALKVAAHLRWDLNMLEKGLTIPVLNMLLNELLCVSHVPPGVKHVDLDLSSLPPTTAMAVVFYNRWAIRTIVLSSFPEKQTKPGPHQLNMMNMLQQEKEHTENILSVLREQATDSIMVLEGALSIKKDFYIHL", "soluble on expression in E. coli": "not soluble"}, {"sequence": "SSSGYSSLEEDEDFFFTARTSFFRRAPPGKSRSGQPDVEKEKETHNYLSKEEIKEKVHKYNSAVTDKLKMTLNSNGIYTGFIKVQMELCKPAQPSPEPSSGGCMNTLHISSTNTVGEVIEALLRKFLVTESPTKFALYKRCHREDQVYACKLSDREHPLYLRLVAGPRTDTLSFVLREHEIGEWEAFSLPELQNFLRILDKEEDEQLQSLKRRYTAYRQKLEEALGEVWKPG", "soluble on expression in E. coli": "soluble"}]}]}
